Test results reported in the supplement of paper PMC12764529.
± gives the half width of the 95% confidence interval.

Key:
[1] = folding stability dG unfold from trypsin proteolysis; higher = more stable
In short: (§1)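 Mini-proteins designed to be under 80 residues and free of cysteine were carried in a PA-tagged cDNA display construct and digested with trypsin and with chymotrypsin. Each protease was applied at 11 threefold-diluted concentrations, alongside a no-protease condition, before sequencing. K50 came from Bayesian fitting of the sequencing counts, and unfolding free energy was obtained by comparing it with a sequence-predicted unfolded-state K50 and a shared folded-state K50, for each protease separately or for both together. Designs were retained only if their AlphaFold2 dimer inter-PAE exceeded 15.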

[2] = folding stability dG unfold from chymotrypsin proteolysis; higher = more stable
In short: as §1

[3] = folding stability dG unfold (combined trypsin and chymotrypsin); higher = more stable
In short: as §1

Row | Sequence | folding stability dG unfold [1] | folding stability dG unfold [2] | folding stability dG unfold [3]
1 | SAGGSAGGSAGGISPSANVKLVAVDPERGLVVAVAKDPNSGSVSVVVFDANGNSSILPASAGGSAGGSAGGS [r10_450_TrMRF] | -0.317 ± 0.079 kcal/mol | 0.495 ± 0.029 kcal/mol | 0.267 ± 0.043 kcal/mol
2 | SKKIKIILRYPDGWYVKAEMEVPNGKERDIWFPNPEEAIEWAKTIARQFNPGVEIEDIETVPPDDLPPNFSA [r9_137_TrROS] | 1.21 ± 0.084 kcal/mol | 1.86 ± 0.077 kcal/mol | 1.61 ± 0.23 kcal/mol
3 | SAGGMKVDPKTNITTIEFPSSNLPELKEAIEKTGEKPVVVILKDPNSDREVRITLTKEEALKYLEKKSAGGS [r16_797_JUSTAS] | 0.209 ± 0.14 kcal/mol | 0.71 ± 0.1 kcal/mol | 0.565 ± 0.18 kcal/mol
4 | SAGGSFDPVEITTLEDGTIKILAKDPNTNKLFITTLKAKSIKTSSLGNGKTITTIPHEKVEESEELPSAGGS [r16_615_JUSTAS] | -0.795 ± 0.66 kcal/mol | -0.0729 ± 0.51 kcal/mol | -0.554 ± 0.67 kcal/mol
5 | SAGGDPGWVRVTAEIELDGKNLKIEWWYMPNGNYYYNIEFPNGKEIEIMIPMEPGDVEEFAEYIAKKLSAGG [r13_296_TrROS] | 2.32 ± 0.069 kcal/mol | 2.838 ± 0.028 kcal/mol | 2.66 ± 0.11 kcal/mol
6 | SAGGGSAWKVTAENLPADGYVKFPDGTTVPPGTELTVPLSAGYTDIRALDPEGNVVSVELVPLPEPKLSAGG [r13_441_JUSTAS] | -0.15 ± 0.14 kcal/mol | -0.274 ± 0.29 kcal/mol | -0.187 ± 0.18 kcal/mol
7 | SAWKIWIEFTPGDPGDTYQIRIDPNSPNLEALLKELAQMFKYEVKDAEVEYNPNGSVWVEFKVDELKPPSAG [r14_655_TrROS] | 1.77 ± 0.081 kcal/mol | 2.67 ± 0.056 kcal/mol | 2.37 ± 0.095 kcal/mol
8 | SAGGSAGGSKFKIVSIEVTVETNEDGSKTLTVKIRLEDGSEITITVPENATLEEVLKLLKELASAGGSAGGS [r12_1047_TrROS_Hall] | 3.88 ± 0.2 kcal/mol | 4.42 ± 0.051 kcal/mol | 4.31 ± 0.11 kcal/mol
9 | SAGITIIIRGPDAKEAAEDIAKELLKNGFKRPITVHVLDPDGKPWYRIKIQFDPKNPGKIKVKVEPYDSAGG [r19_85_TrROS] | 3.39 ± 0.089 kcal/mol | 3.66 ± 0.042 kcal/mol | 3.65 ± 0.076 kcal/mol
10 | SAGGSAMLDNLVPVGSVTVVERFPDGLLRVVNYTFWRDPESGAWYVSADVEVFPLLPEDPVLLEAGSAGGSA [r15_207_TrMRF] | 2.24 ± 0.11 kcal/mol | 3.88 ± 0.048 kcal/mol | 3.6 ± 0.11 kcal/mol
11 | SAGMTIIKIEFPDGSKATVDPTNPSTMTITDPNGNTTVLNLTGVEEAKKQLIETLKKETGLPVKKVEVESAG [r5_119_JUSTAS] | 0.493 ± 0.045 kcal/mol | 1.38 ± 0.049 kcal/mol | 1.14 ± 0.088 kcal/mol
12 | SMIVKSEPVKDPNSDLTTTPVTITLPVREYDPSLGVTRERLVTINGTVITTLLEKHPDGSVISTVDVLPASA [r9_1058_JUSTAS] | -0.177 ± 0.026 kcal/mol | 0.69 ± 0.039 kcal/mol | 0.427 ± 0.049 kcal/mol
13 | SAGGMGSEKLPLTLTLPGDRKLEVTVYRVGDKLYVEIKLTHGSKPLGTLTVEADSLDEVLDAAKEAASAGGS [r16_55_TrMRF] | 2.77 ± 0.15 kcal/mol | 3.58 ± 0.062 kcal/mol | 3.28 ± 0.15 kcal/mol
14 | SAGLKIVEDIRKKLEEEGYDVKVKYEIKPEPKDGKYIITIEVTIKDEKGNEVPIGKETIVIPLEEYEKSSAG [r5_413_JUSTAS] | 1.27 ± 0.18 kcal/mol | 2.74 ± 0.083 kcal/mol | 2.28 ± 0.16 kcal/mol
15 | SAGGKDGKPKPKVEPEITVQFYIPLPPDDLTPEEIAQWMSDHFGFPFTNVEIERHPEDNYYRVSFTIRSAGG [r13_457_TrROS] | 1.86 ± 0.064 kcal/mol | 2.56 ± 0.1 kcal/mol | 2.4 ± 0.086 kcal/mol
16 | SAGGSAGGSAGPRIVAFNVPNGKTIPLFAPDGWMIRINIERDPKDGEHKMETEYVPADDISAGGSAGGSAGG [r17_287_TrROS] | -0.424 ± 0.37 kcal/mol | -0.276 ± 0.44 kcal/mol | -0.419 ± 0.29 kcal/mol
17 | SAGGKKKLTLEIKIKVPKEEEEKAKEKAKKLAEELAKKLKEAGYKVKVTVEIDEETGEITVKVEVELPSAGG [r13_755_TrROS_Hall] | 2.84 ± 0.34 kcal/mol | 3.54 ± 0.55 kcal/mol | 3.43 ± 0.49 kcal/mol
18 | SAGGSAGGSAMRLRLKVKPGEKVRIRVERDGKVYEFEVTVEEGADEIEIDLPPGVKRIEIEPSAGGSAGGSA [r18_124_TrROS_Hall] | 2.76 ± 0.21 kcal/mol | 3.8 ± 0.095 kcal/mol | 3.62 ± 0.17 kcal/mol
19 | SAGGGSMLIRRRLLLVERIEDGLLTYDIEEEVYLPLPEPEVPVSVERRPDGSLVLTFPDGTRRLLPRSAGGS [r16_136_JUSTAS] | 1.65 ± 0.077 kcal/mol | 2.39 ± 0.17 kcal/mol | 2.01 ± 0.13 kcal/mol
20 | SAMKKTETRVLEIRIGDYLAKIFLTEYEDGRVETLIEVYGPDPAVVEEVKDFLEKLDPDLEITEIVVLDSAG [r14_611_TrMRF] | 3.13 ± 0.072 kcal/mol | 2.23 ± 0.032 kcal/mol | 2.68 ± 0.12 kcal/mol
21 | SAGGSAFKLTFKNMKIESKMPNPDGQKMIRIEWPDGLSIMIHPPNAIWIMPKDDPEMPPGDMVPIDSAGGSA [r15_692_TrROS] | 0.695 ± 0.25 kcal/mol | 0.782 ± 0.28 kcal/mol | 0.953 ± 0.28 kcal/mol

Row | Sequence | folding stability dG unfold [1] | folding stability dG unfold [2] | folding stability dG unfold [3]
22 | SAGGMKVTITVTDPEAFRAAVEALPEVPPEQVSTSPLPGNSYTATFPSEKAVELLKAAGVPITEIAASAGGS [r16_381_JUSTAS] | 0.377 ± 0.022 kcal/mol | 0.63 ± 0.074 kcal/mol | 0.568 ± 0.05 kcal/mol
23 | SAGGSAPSISYTDPNITTITVNPPYITTTRPDGTTTVYKVNNGGDITKLKTTPPVPPAAATDASVASAGGSA [r15_393_JUSTAS] | -0.17 ± 0.071 kcal/mol | 0.421 ± 0.13 kcal/mol | 0.148 ± 0.16 kcal/mol
24 | SKEEEEEIEIEIVVPNLTEEEIKELAKELLEKKGYEVEEIEITEEELEELKNKKPGDEVVIKIKIKVKKKSA [r9_1163_TrROS_Hall] | 2.51 ± 0.19 kcal/mol | 2.27 ± 0.073 kcal/mol | 2.51 ± 0.2 kcal/mol
25 | SGFTFSTLIAPDESLSITVKEPNSSTTTSFDFTVDPATGAVSATATTTPPDGKTQTFSVTIPVSPGAAALSA [r9_770_JUSTAS] | 1.02 ± 0.08 kcal/mol | 0.924 ± 0.18 kcal/mol | 0.973 ± 0.11 kcal/mol
26 | SATPYTFTLPDGYVIPAYKLPDGTVRVTAQYYDPVDRKPVGTYEATADPTDGTIELTFPNGDKATITLPDSA [r9_56_TrMRF] | 0.859 ± 0.051 kcal/mol | 1.01 ± 0.1 kcal/mol | 1.01 ± 0.09 kcal/mol
27 | SAGGSAKTITIYAPDLPLSEAIETLERLIKELGLTPVSVSVSYNPETGTVTITVTLPNGDTLTLHVSAGGSA [r15_958_TrMRF] | 2.18 ± 0.058 kcal/mol | 3.37 ± 0.046 kcal/mol | 2.99 ± 0.079 kcal/mol
28 | SAGGSAGGSAGWFFVMDIKYEYRQTPDGKTEQEMSIEMKPIPPIPAEDLKEKLGLPPEDIASAGGSAGGSAG [r3_338_TrROS] | 0.937 ± 0.067 kcal/mol | 2.62 ± 0.11 kcal/mol | 1.94 ± 0.17 kcal/mol
29 | SAGGSAGGSAGKKKKIFLIKIEVVKVKVEKRKKKDGKLEEKVEIEIKIEITEIPLPPELLSAGGSAGGSAGG [r11_24_TrROS_Hall] | 2.81 ± 0.12 kcal/mol | 3.02 ± 0.058 kcal/mol | 2.94 ± 0.19 kcal/mol
30 | SAGGKVVVVPFPGPVTPETVAALAAKFIEEGLYDVPLVVVSEVEGRRPDGRPGRRRFGFVYVAKAPKSAGGS [r16_44_TrMRF] | 1.23 ± 0.051 kcal/mol | 1.98 ± 0.13 kcal/mol | 1.59 ± 0.1 kcal/mol
31 | SAGKRMPVEEIANELAKEFPPGQTREVPIRNEDGGEWITLTVYHPNGKPVWKITIRPDGEIEVEWVPLSAGG [r19_0_TrROS] | 0.889 ± 0.042 kcal/mol | 2.31 ± 0.024 kcal/mol | 1.94 ± 0.088 kcal/mol
32 | SAGGSAGGMIYADNPEEFKKVVKELLKKHPKNKPVFAVLTGSNSKYVIYLSGDKLEKVLAFPVPSAGGSAGG [r6_288_TrMRF] | 0.961 ± 0.028 kcal/mol | 1.62 ± 0.051 kcal/mol | 1.38 ± 0.052 kcal/mol
33 | SAGGPRVEPLPLRVTYEDGVPPREVTVPLLAVTALDPETGEPVTFVNPGSLEVLAALLPPSVVSFDFSAGGS [r16_522_TrMRF] | 0.714 ± 0.012 kcal/mol | 0.703 ± 0.066 kcal/mol | 0.755 ± 0.05 kcal/mol
34 | SAGGMVLEVEFTGPLSEVEAFIEELKAKPGVELLSVEIEVKPLPGPPVRYRVKLEVKIYDPENPVLLSAGGS [r8_374_JUSTAS] | 2.26 ± 0.22 kcal/mol | 3.07 ± 0.077 kcal/mol | 2.74 ± 0.37 kcal/mol
35 | SAGGMSKEELAKKLAKELAEKLGIKEIKEIKIEKKKDKVKITIVFKENKKIIEIELKDGKIVKIKEKSAGGS [r16_171_TrROS_Hall] | 3.36 ± 0.15 kcal/mol | 3.22 ± 0.16 kcal/mol | 3.26 ± 0.16 kcal/mol
36 | SAGGSAGGSAGGVPEDVIMSPVSTTLVEKEVLSTEVTPEGAPKTVEKVLIVEKTLEPLLSAGGSAGGSAGGS [r10_758_JUSTAS] | 0.0499 ± 0.05 kcal/mol | -0.853 ± 0.24 kcal/mol | -0.429 ± 0.29 kcal/mol
37 | SPYTVDSVSEDPSRNSTTVLNFPDGTTVTVTYDPSNPSLATVTVRPADGTTETTTVPLDEPFVVNLTVNPSA [r9_875_JUSTAS] | 0.922 ± 0.074 kcal/mol | 0.94 ± 0.17 kcal/mol | 1.02 ± 0.21 kcal/mol
38 | SAGGSAGGSAGMKVTIEENEETGKFTIKVKTEDGEEKTIEIPKENLEEILAKLPPNVEIISAGGSAGGSAGG [r11_569_TrROS_Hall] | 2.52 ± 0.11 kcal/mol | 1.92 ± 0.036 kcal/mol | 2.14 ± 0.17 kcal/mol
39 | SAGGSAGGSAGGMALIKLPNGEVQPVKIKAIDPDGNILVEPENSEWQTFSFDGLEIIPLPSAGGSAGGSAGG [r7_823_TrMRF] | 0.647 ± 0.041 kcal/mol | 0.955 ± 0.16 kcal/mol | 0.886 ± 0.16 kcal/mol
40 | SAGGGSTTTYSIPEGPLTLEVTTVTVGDGTVKKTVVTTPEGKRTEIPPSNPITIPPNWTVTSSVTLTSAGGS [r16_669_JUSTAS] | -0.114 ± 0.12 kcal/mol | 0.0533 ± 0.16 kcal/mol | 0.0118 ± 0.16 kcal/mol
41 | SAGGSAGGSAGGPEIELLEDVKPGEFVVIKVKLKDADGNEVTATFVFYNGEWYLTKIEPSAGGSAGGSAGGS [r10_288_TrROS_Hall] | 2.92 ± 0.14 kcal/mol | 4.73 ± 0.063 kcal/mol | 4.54 ± 0.2 kcal/mol
42 | SAGGSAGGSAGKKKILLKFKSAEEALEAIKKGKTIKLKNGKTVKVKKVTLDKNGYLLIELSAGGSAGGSAGG [r11_48_TrROS_Hall] | 2.23 ± 0.034 kcal/mol | 2.547 ± 0.021 kcal/mol | 2.44 ± 0.06 kcal/mol
